Results on three molecules are retold here after paper PMC4400149, “The Carboxy-Terminal Domain of Erb1 Is a Seven-Bladed ß-Propeller that Binds RNA” (PLoS ONE, 2015).

In data set [1] the target is T1, ChErb1 432-801 (C-terminal seven-bladed beta-propeller) (Chaetomium thermophilum var. thermophilum) (UniProt G0SCK6).
T1 sequence: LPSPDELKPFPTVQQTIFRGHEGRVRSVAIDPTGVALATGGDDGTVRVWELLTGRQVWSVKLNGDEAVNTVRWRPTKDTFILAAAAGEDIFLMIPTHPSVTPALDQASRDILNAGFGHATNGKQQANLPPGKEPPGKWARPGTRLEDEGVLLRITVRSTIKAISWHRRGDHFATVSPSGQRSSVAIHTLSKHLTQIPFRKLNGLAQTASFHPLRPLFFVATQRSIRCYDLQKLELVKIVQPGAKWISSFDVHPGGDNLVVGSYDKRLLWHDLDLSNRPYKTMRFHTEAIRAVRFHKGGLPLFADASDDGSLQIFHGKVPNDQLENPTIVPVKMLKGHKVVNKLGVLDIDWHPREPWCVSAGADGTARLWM
The experiment in a line: fluorescence titration (intrinsic Trp). The settings on record: apparent KD; emission at 315 nm; 1.5 uM protein; Fluorescence: 20 mM Hepes pH 7.5, 150 mM NaCl, 5% glycerol, 2 mM beta-mercaptoethanol, 25 C; bead pull-down: 50 mM Tris pH 8, 100 mM NaCl, 5 mM MgCl2, 3 mM ….

Data set [2] has as its target T2, Erb1 (Eukaryotic Ribosome Biogenesis 1) from Saccharomyces cerevisiae (Saccharomyces cerevisiae, UniProt Q04660 1-807).
T2 construct: Erb1, Saccharomyces cerevisiae, cloned from genomic DNA; 807 residues; Vector pET28-NKI/LIC 6His/3C: N-terminal 6xHis tag followed by a 3C protease site; no cleavage of the tag is told; also called 6xHis-Erb1; source: E. coli BL21 Codon Plus, purified (IMAC, size exclusion chromatography)
T2 sequence (looked up): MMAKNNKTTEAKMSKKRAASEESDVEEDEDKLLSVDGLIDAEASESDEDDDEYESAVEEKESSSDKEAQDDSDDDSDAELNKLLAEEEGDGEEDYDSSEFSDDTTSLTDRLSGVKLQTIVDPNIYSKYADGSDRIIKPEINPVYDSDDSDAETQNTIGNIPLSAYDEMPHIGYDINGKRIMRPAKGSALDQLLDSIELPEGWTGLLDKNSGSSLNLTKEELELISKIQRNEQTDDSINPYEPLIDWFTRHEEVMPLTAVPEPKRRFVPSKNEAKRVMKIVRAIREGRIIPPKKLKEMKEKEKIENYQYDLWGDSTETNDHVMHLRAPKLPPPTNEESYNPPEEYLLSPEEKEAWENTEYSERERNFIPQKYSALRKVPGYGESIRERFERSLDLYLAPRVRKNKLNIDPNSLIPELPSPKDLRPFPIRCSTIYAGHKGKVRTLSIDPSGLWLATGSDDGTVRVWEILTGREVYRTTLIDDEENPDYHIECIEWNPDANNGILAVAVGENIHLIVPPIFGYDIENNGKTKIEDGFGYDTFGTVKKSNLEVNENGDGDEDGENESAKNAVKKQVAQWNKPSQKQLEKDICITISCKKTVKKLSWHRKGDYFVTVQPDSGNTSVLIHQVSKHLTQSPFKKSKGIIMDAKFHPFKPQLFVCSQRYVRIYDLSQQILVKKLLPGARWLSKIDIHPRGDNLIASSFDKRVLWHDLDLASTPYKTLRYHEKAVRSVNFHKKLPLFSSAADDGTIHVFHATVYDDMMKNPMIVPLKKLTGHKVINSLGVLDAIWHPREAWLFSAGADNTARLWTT
Kind of data set: SEC; purified Nop7 and Erb1 mixed in equimolar amounts, Superdex200 16/60 in SE buffer (20mM Hepes pH 7.5; 0.25M NaCl; 2 mM β-mercaptoethanol, 5% glycerol); fractions of the heterodimer collected. As to conditions: both partners purified.

The target of data set [3] is T3, ChErb1 432-801 (C-terminal seven-bladed beta-propeller) (Chaetomium thermophilum var. …, UniProt G0SCK6 432-801).
T3 sequence: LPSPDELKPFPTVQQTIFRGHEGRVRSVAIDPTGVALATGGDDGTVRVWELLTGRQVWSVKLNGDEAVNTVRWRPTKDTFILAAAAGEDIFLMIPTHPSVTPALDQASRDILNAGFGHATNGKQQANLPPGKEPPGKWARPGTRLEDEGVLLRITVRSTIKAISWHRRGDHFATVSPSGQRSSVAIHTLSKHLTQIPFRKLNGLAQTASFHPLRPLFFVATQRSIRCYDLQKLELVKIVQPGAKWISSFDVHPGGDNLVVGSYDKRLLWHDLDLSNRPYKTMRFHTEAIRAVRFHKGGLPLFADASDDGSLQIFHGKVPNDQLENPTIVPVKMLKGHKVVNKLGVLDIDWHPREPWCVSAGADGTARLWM
The experiment in a line: BLI; Fluorescence: 20 mM Hepes pH 7.5, 150 mM NaCl, 5% glycerol, 2 mM beta-mercaptoethanol, 25 C; bead pull-down: 50 mM Tris pH 8, 100 mM NaCl, 5 mM MgCl2, 3 mM DTT, 0.1% Triton X-100, 0.1 mg/ml BSA, room temperature; BLI conditions not in material. The settings on record: protein: recombinant; tags: N-terminal 6xHis with 3C site (pET28-NKI/LIC 6His/3C); single strand. A general note: BLI is a label-free optical method that tracks binding on a fibre tip over time.

Consider free poly(U), for which the Kd in data set [1] worked out at 3 µM.

B1: Nop7 from Saccharomyces cerevisiae (natural protein, UniProt P53261 1-605, looked up)
chain: MRIKKKNTRGNARNFITRSQAVRKLQVSLADFRRLCIFKGIYPREPRNKKKANKGSTAPTTFYYAKDIQYLMHEPVLAKFREHKTFARKLTRALGRGEVSSAKRLEENRDSYTLDHIIKERYPSFPDAIRDIDDALNMLFLFSNLPSTNQVSSKIINDAQKICNQWLAYVAKERLVRKVFVSIKGVYYQANIKGEEVRWLVPFKFPENIPSDVDFRIMLTFLEFYSTLLHFVLYKLYTDSGLIYPPKLDLKKDKIISGLSSYILESRQEDSLLKLDPTEIEEDVKVESLDASTLKSALNADEANTDETEKEEEQEKKQEKEQEKEQNEETELDTFEDNNKNKGDILIQPSKYDSPVASLFSAFVFYVSREVPIDILEFLILSCGGNVISEAAMDQIENKKDIDMSKVTHQIVDRPVLKNKVAGRTYIQPQWIFDCINKGELVPANKYLPGEALPPHLSPWGDAIGYDPTAPVEEGEEEESESESESEDQVEEEDQEVVAGEEDDDDDEELQAQKELELEAQGIKYSETSEADKDVNKSKNKKRKVDEEEEEKKLKMIMMSNKQKKLYKKMKYSNAKKEEQAENLKKKKKQIAKQKAKLNKLDSKK
notes: Nop7, Saccharomyces cerevisiae, cloned from genomic DNA; called full length Nop7 in the results; Vector pNIC28-Bsa4: N-terminal 6xHis tag followed by a TEV site; no cleavage of the tag is told; also called 6xHis-Nop7; source: E. coli BL21 Codon Plus, purified (IMAC, size exclusion chromatography)
Turning to B1, in data set [2], the binding result is given as “binds”.
Take UUUUUUUUUUUUUUU (ssRNA) [biotinylated poly(U) 15-mer]: the Kd in data set [3] came to 0.17 µM.
